Reference: US20260274955A1 (JANUX THERAPEUTICS, published 2026)

What was measured:
[1] = target: Anti-CD28 Fab (SEQ ID NOs: 202, 203); assay: phage binding ELISA on captured Fab; competitor CD28 antigen;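 as to Anti-CD28 Fab signal in the presence of CD28: wells pretreated with CD28 antigen in blocking buffer or buffer only, then clonal phage supernatants added briefly without washing, bound phage detected via horseradish-conjugated anti-M13 antibody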
[2] = target: Anti-CD28 Fab (SEQ ID NOs: 202, 203); assay: phage binding ELISA on captured Fab;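 also: clonal phage supernatants added briefly to wells pre-incubated with CD28 antigen or with blocking buffer only, then washed, bound phage read by ELISA using HRP-coupled anti-M13 antibody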
[3] = target: anti-CD28 Fab (SEQ ID NOs: 202, 203); assay: phage ELISA, Fab on plate;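 also: ELISA of crude clonal phage supernatants on the plate, wells preloaded with CD28 antigen or only blocking buffer, captured phage read out via HRP-linked anti-M13 antibody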
anti-CD28 Fab (SEQ ID NOs: 202, 203), sequence (VH, as listed by the source, chain 1 of 2): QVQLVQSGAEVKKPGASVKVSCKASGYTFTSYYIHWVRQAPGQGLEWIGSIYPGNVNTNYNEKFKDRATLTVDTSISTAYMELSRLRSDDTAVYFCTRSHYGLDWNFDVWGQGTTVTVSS
anti-CD28 Fab (SEQ ID NOs: 202, 203), sequence (VL, as listed by the source, chain 2 of 2): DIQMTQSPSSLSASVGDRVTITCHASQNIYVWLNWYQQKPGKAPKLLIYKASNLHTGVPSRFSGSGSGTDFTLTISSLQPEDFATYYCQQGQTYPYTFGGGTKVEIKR

[4] = target: anti-CD28 Fab (SEQ ID NOs: 202, 203); assay: phage ELISA, Fab on plate, CD28 antigen as competitor;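 also: wells pre-incubated with CD28 antigen in blocking buffer (reference: blocking buffer only) before adding crude clonal phage supernatant, bound phage read with HRP-coupled anti-M13 antibody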

Anti-CD28 Fab (SEQ ID NOs: 202, 203), sequence (VH, as listed by the source, chain 1 of 2): as the sequence (VH, as listed by the source, chain 1 of 2) above
Anti-CD28 Fab (SEQ ID NOs: 202, 203), sequence (VL, as listed by the source, chain 2 of 2): as the sequence (VL, as listed by the source, chain 2 of 2) above

For YCDGHAPEYMMKCL [Phage-61], the “Anti-CD28 Fab signal in the presence of CD28” value (“Anti-CD28 Fab signal … of CD28” for short) [1] was 0.09 and the “Anti-CD28 Fab signal” value [2] was 2.39.

In the case of YCEGHSPQYMWKCL [Phage-142], the “Anti-CD28 Fab signal … of CD28” value [1] is reported as 0.12 and the “Anti-CD28 Fab signal” value [2] is reported as 2.22.

With YCEGHLPLYMWKCL [Phage-96] the “Anti-CD28 Fab signal … of CD28” value [1] was 0.07 and the “Anti-CD28 Fab signal” value [2] was 2.3.

In the case of YCDGHLPEYLAKCL [Phage-64], the “Anti-CD28 Fab signal … of CD28” value [1] is reported as 0.11 and the “Anti-CD28 Fab signal” value [2] is reported as 2.38.

YCMGHAPEYMAKCL [Phage-68] was tested, and the “Anti-CD28 Fab signal … of CD28” value [1] was 0.09 and the “Anti-CD28 Fab signal” value [2] was 2.38.

For YCDGHLPIYMAKCL [Phage-100], the “Anti-CD28 Fab signal … of CD28” value [1] was 0.14 and the “Anti-CD28 Fab signal” value [2] was 2.3.

In the case of YCEGHSPEYMSKCL [Phage-89], the “Anti-CD28 Fab signal … of CD28” value [1] is reported as 0.07 and the “Anti-CD28 Fab signal” value [2] is reported as 2.31.

With YCEGHLPEYMWKCL [Phage-62] the “Anti-CD28 Fab signal … of CD28” value [1] was 0.08 and the “Anti-CD28 Fab signal” value [2] was 2.39.

YCDGHLPEYQEKCL [Phage-71] was tested, and the “Anti-CD28 Fab signal … of CD28” value [1] was 0.1 and the “Anti-CD28 Fab signal” value [2] was 2.37.

For YCEGHAAEYMAKCL [Phage-63], the “Anti-CD28 Fab signal … of CD28” value [1] was 0.08 and the “Anti-CD28 Fab signal” value [2] was 2.38.

With YCEGHAPEYMLKCL [Phage-146] the “Anti-CD28 Fab signal … of CD28” value [1] was 0.07 and the “Anti-CD28 Fab signal” value [2] was 2.21.

For YCDGHLDEYMAKCL [Phage-94], the “Anti-CD28 Fab signal … of CD28” value [1] was 0.08 and the “Anti-CD28 Fab signal” value [2] was 2.31.

YCEGHLPQYMKKCL [Phage-144] was tested, and the “Anti-CD28 Fab signal … of CD28” value [1] was 0.1 and the “Anti-CD28 Fab signal” value [2] was 2.22.

With YCDGHLPEYMSKCM [Phage-66] the “Anti-CD28 Fab signal … of CD28” value [1] was 0.14 and the “Anti-CD28 Fab signal” value [2] was 2.38.

With YCAGHLPQYMSKCL [Phage-72] the “Anti-CD28 Fab signal … of CD28” value [1] was 0.11 and the “Anti-CD28 Fab signal” value [2] was 2.37.

With YCEGHAAEYMTKCL [Phage-143] the “Anti-CD28 Fab signal … of CD28” value [1] was 0.08 and the “Anti-CD28 Fab signal” value [2] was 2.22.

For YCDGHLPIYMSQCL [Phage-73], the “Anti-CD28 Fab signal … of CD28” value [1] was 0.12 and the “Anti-CD28 Fab signal” value [2] was 2.36.

For YCDGHIEEYRAKCL [Phage-145], the “Anti-CD28 Fab signal … of CD28” value [1] was 0.07 and the “Anti-CD28 Fab signal” value [2] was 2.21.

With YCDGHSPQYIEKCL [Phage-92] the “Anti-CD28 Fab signal … of CD28” value [1] was 0.07 and the “Anti-CD28 Fab signal” value [2] was 2.31.

YCAGHMPEYMAKCL [Phage-65] was tested, and the “Anti-CD28 Fab signal … of CD28” value [1] was 0.11 and the “Anti-CD28 Fab signal” value [2] was 2.38.

For ICAAGFIWSWPACF [Phage-1101], the “Anti-CD28 Fab signal” value [3] was 1.51 and the “Anti-CD28 Fab signal … of CD28” value [4] was 0.08.

With YCWSHSPPFIKKCY [Phage-39] the “Anti-CD28 Fab signal … of CD28” value [1] was 0.06 and the “Anti-CD28 Fab signal” value [2] was 2.06.

For YCEGHTVEYMAKCL [Phage-149], the “Anti-CD28 Fab signal … of CD28” value [1] was 0.08 and the “Anti-CD28 Fab signal” value [2] was 2.2.

With YCEGHLPEYLEKCV [Phage-41] the “Anti-CD28 Fab signal … of CD28” value [1] was 0.06 and the “Anti-CD28 Fab signal” value [2] was 2.11.

YCDGHTLEYMWKCL [Phage-95] was tested, and the “Anti-CD28 Fab signal … of CD28” value [1] was 0.13 and the “Anti-CD28 Fab signal” value [2] was 2.31.

For HCSGHHWLQVWKCF [Phage-38], the “Anti-CD28 Fab signal … of CD28” value [1] was 0.07 and the “Anti-CD28 Fab signal” value [2] was 2.31.

With YCEGHTAEYMQKCL [Phage-67] the “Anti-CD28 Fab signal … of CD28” value [1] was 0.08 and the “Anti-CD28 Fab signal” value [2] was 2.38.

In the case of YCDGHRGEYLQKCL [Phage-141], the “Anti-CD28 Fab signal … of CD28” value [1] is reported as 0.09 and the “Anti-CD28 Fab signal” value [2] is reported as 2.22.

In the case of YCEGHSEEYISKCL [Phage-99], the “Anti-CD28 Fab signal … of CD28” value [1] is reported as 0.08 and the “Anti-CD28 Fab signal” value [2] is reported as 2.3.

In the case of YCEGHTMEYMWKCL [Phage-90], the “Anti-CD28 Fab signal … of CD28” value [1] is reported as 0.07 and the “Anti-CD28 Fab signal” value [2] is reported as 2.31.

With SCAAGAHYKWPVCI [Phage-1100] the “Anti-CD28 Fab signal” value [3] was 1.51 and the “Anti-CD28 Fab signal … of CD28” value [4] was 0.06.

In the case of YCAGHLPEYMPHCI [Phage-91], the “Anti-CD28 Fab signal … of CD28” value [1] is reported as 0.09 and the “Anti-CD28 Fab signal” value [2] is reported as 2.31.

For YCDGHEPQYMLKCL [Phage-88], the “Anti-CD28 Fab signal … of CD28” value [1] was 0.12 and the “Anti-CD28 Fab signal” value [2] was 2.32.

In the case of YCEGHSQEYLWKCL [Phage-36], the “Anti-CD28 Fab signal … of CD28” value [1] is reported as 0.07 and the “Anti-CD28 Fab signal” value [2] is reported as 2.36.

In the case of YCAGHSPEHMWKCL [Phage-98], the “Anti-CD28 Fab signal … of CD28” value [1] is reported as 0.06 and the “Anti-CD28 Fab signal” value [2] is reported as 2.3.

With YCEGHSSEYIQKCL [Phage-37] the “Anti-CD28 Fab signal … of CD28” value [1] was 0.1 and the “Anti-CD28 Fab signal” value [2] was 2.25.

With YCDGHAPEYMEKCM [Phage-148] the “Anti-CD28 Fab signal … of CD28” value [1] was 0.07 and the “Anti-CD28 Fab signal” value [2] was 2.21.

In the case of YCEGHSQENIWKCL [Phage-32], the “Anti-CD28 Fab signal … of CD28” value [1] is reported as 0.07 and the “Anti-CD28 Fab signal” value [2] is reported as 1.41.

With TCSAGATYSWPSCF [Phage-1187] the “Anti-CD28 Fab signal” value [3] was 1.21 and the “Anti-CD28 Fab signal … of CD28” value [4] was 0.09.

With YCDGHSWEYIGKCL [Phage-70] the “Anti-CD28 Fab signal … of CD28” value [1] was 0.07 and the “Anti-CD28 Fab signal” value [2] was 2.37.
